# According to the supplement of paper PMC11780869:
# System: Bacillus subtilis
# Assay: cleaved RNA product abundance (RNA/gDNA barcode ratio) relative to median wild-type variant (ratio to wild type); higher = more accumulation of the downstream cleavage product
# Procedure, shortened: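 In LB at 37°C, B. subtilis cultures went from OD600 0.0003 to 0.3. Their chromosomes held barcoded reporter mRNAs, truncated aprE or tetM, with RNase Y cleavage-site windows mutagenized via oligos at a 9% error rate. Cleaved RNA, chosen by gel, was reverse transcribed and barcode-sequenced alongside genomic DNA barcodes with UMI collapsing, giving a per-construct RNA:gDNA ratio scaled to the median construct with the unmutated site. This scaled ratio is termed cleaved product abundance.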
# [1] = experiment (reporter, strain, medium): exp 8a: truncated aprE reporter, strain BJT201 with 2% xylose (RNase J1 expressed), cleavage site: glnRA (positions -5 to +31 mutated)
# [2] = experiment (reporter, strain, medium): exp 2b: truncated aprE reporter, strain BJT200, cleavage site: cggR-gapA (positions -7 to +36 mutated)
# [3] = experiment (reporter, strain, medium): exp 4a: truncated aprE reporter, strain BJT201 with 2% xylose (RNase J1 expressed), cleavage site: cggR-gapA (positions -7 to +36 mutated)
sequence,measurement,setting,value
CGACATGTCCCGCTTCTTTCATTAATCCGTTAGCAACTGTATTGCTATATACATTTATCTTTTAAGAGGAGGAAT,cleaved RNA product abundance,[1],1.07
CGACATGTCCCGCTTCTTTCATTAATCCGTTAGAAATTGTTTTGCTATATACATTTACCTTTTAAGAGGAGGAAT,cleaved RNA product abundance,[1],0.342
ACAGACGAAGGAGCCGCAAAGAAGTTATTATGGGATGAATAATCCCTCAATATAAAAATCTCTCACTTATTTAAA,cleaved RNA product abundance,[2],0.279
same,cleaved RNA product abundance,[3],0.391
ACAGACGAAGGAGCCGCAAAGAAGTAATTAAGGGCTGAATAATCCCTCAATATAAATATCTCTCACTTATTTAAA,cleaved RNA product abundance,[2],0.161
same,cleaved RNA product abundance,[3],0.165
ACAGACGAAGGAGCCGCAAAGACGTTATTAAGGGATGAATAATCCCTCAAGATAAATATCTCTCACTTATTTAAA,cleaved RNA product abundance,[3],0.205
ACAGACGAAGGAGCCGCAAAGAAGTTATTAAGGGAAGAATAATCCCTCAACATAAATATCTCTCACTTATTTAAA,cleaved RNA product abundance,[2],0.133
same,cleaved RNA product abundance,[3],0.257
CGACATGTCCCGCTTCTTTCATTAATTCGTTACCAACTGTTTTGCTATATACATTTACCTTTTAAGAGGAGGAAT,cleaved RNA product abundance,[1],0.231
CGACATGTCCCGCTTCTTTCATTAATCCGTTAGCAACTTTTTTGCTATATACATTTACCGTTTAAGAGGAGGAAT,cleaved RNA product abundance,[1],1.51
CGACATGTCCCGCTTCTTTCATTAATCCGTTAGCAACTGTTTTTCTAGATACATTTACCTTTTAAGAGGAGGAAT,cleaved RNA product abundance,[1],0.378
ACAGACGAAGGAGCCGCAAAGAAGTTATTAAGGGATGAATAATCCCTCAATATAAAAATGTCTCACTTATTTAAA,cleaved RNA product abundance,[3],1.17
ACAGACGAAGGAGCCGCAAAGAAGTTATTAAGGGAAGAATAACCCCTCAATATAAATATCTCTCACTTATTTAAA,cleaved RNA product abundance,[2],0.283
same,cleaved RNA product abundance,[3],0.369
ACAGACGAAGGAGCCGCAAAGAACTTATTAAGGGTTGAATAATCCCTCAATATAAATATCTCTCACTTATTTAAA,cleaved RNA product abundance,[2],0.218
same,cleaved RNA product abundance,[3],0.232
CGACATGTCCCGCTTCTTTCATTAATCCGTTAGAAACTGTTTTGCTATATACATCTACCTTTTAAGAGGAGGAAT,cleaved RNA product abundance,[1],0.228
CGACATGTCCCGCTTCTTTCATTAATCCGTCAGCAAATGTTTTGCTATATACATTTACCTTTTAAGAGGAGGAAT,cleaved RNA product abundance,[1],0.398
ACAGACGAAGGAGCCGCAAAGAAGTTATTAAGGGATGAATAACCCCTCAATATACATATCTCTCACTTATTTAAA,cleaved RNA product abundance,[3],0.37
ACAGACGAAGGAGCCGCAAAGAAGTTAGTAAGGGATTAATAATCCCTCAATATAAATATCTCTCACTTATTTAAA,cleaved RNA product abundance,[3],0.406
CGACATGTCCCGCTTCTTTCATTATTCTGTTAGCAACTGTTTTGCTATAAACATTTACCTTTTAAGAGGAGGAAT,cleaved RNA product abundance,[1],0.834
ACAGACGAAGGAGCCGCAAAGAAGTTATTAAGGGATGAATAATCCCTCATAATAAATATCTCTCACTTATTTAAA,cleaved RNA product abundance,[3],0.554
CGACATGTCCCGCTTCTTTCATTAATCCCTTAGCAACTGTTTTGCTATATACATTTACCTTTTAAGAGGAGGAAT,cleaved RNA product abundance,[1],0.213
ACAGACGAAGGAGCCGCAGAGAAGTTAATAAGGGATGAATAATCCCTCAATATAAATATCTCTCACTTATTTAAA,cleaved RNA product abundance,[3],0.449
CGACATGTCCCGCTTCTTTCATTAATCCGTTAGCAACTGTTTTTCTGTATACATTTACCTTTTAAGAGGAGGAAT,cleaved RNA product abundance,[1],0.357
CGACATGTCCCGCTTCTTTCATTAATCTGTTAGCAACTGTTTTGCTATAAACATTTACCTTTTAAGAGGAGGAAT,cleaved RNA product abundance,[1],0.917
CGACATGTCCCGCTTCTTTCATTATTCCGTTAGCAACTGTCTTGCTATATACATTTACCTTTTAAGAGGAGGAAT,cleaved RNA product abundance,[1],1.31
ACAGACGAAGGAGCCGCAAAGAAGTTATTACGGAATGAATAATCCCTCAATATAAATATCTCTCACTTATTTAAA,cleaved RNA product abundance,[2],0.1
same,cleaved RNA product abundance,[3],0.0966
CGACATGTCCCGCTTCTTTCATTAATCAGTTAGCAACTGTTTTGCTATACACATTTACCTTTTAAGAGGAGGAAT,cleaved RNA product abundance,[1],0.225
ACAGACGAAGGAGCCGCAAAGAAGTTATAAAGGGATGAATAATCCCTCAACATAAATATCTCTCACTTATTTAAA,cleaved RNA product abundance,[3],0.304
ACAGACGAAGGAGCCGCAAAGAAGTTATTAAGGGTTGAATAATACCTCAATATAAATATCTCTCACTTATTTAAA,cleaved RNA product abundance,[2],0.146
same,cleaved RNA product abundance,[3],0.234
ACAGACGAAGGAGCCGCAAAGAAGTTATTAAGTGATGAATAATCACTCAATATAAATATCTCTCACTTATTTAAA,cleaved RNA product abundance,[2],0.81
same,cleaved RNA product abundance,[3],1.13
CGACATGTCCCGCTTCTTTCATTAGTCCGTTAGCAACTGTTTTGCTATATACATTTACCTTTTAAGAGGAGGAAT,cleaved RNA product abundance,[1],0.767
CGACATGTCCCGCTTCTTTCATTAATCTGTAAGCAACTGTTTTGCTATATACATTTACCTTTTAAGAGGAGGAAT,cleaved RNA product abundance,[1],0.539
ACAGACGAAGGAGCCGCAAAGAATTTATTAACGGATGAATAATCCCTCAATATAAATATCTCTCACTTATTTAAA,cleaved RNA product abundance,[3],0.203
CGACATGTCCCGCTTCTTTCATTAATCCGTTAGCAACTGTTTTATTATATACATTTACCTTTTAAGAGGAGGAAT,cleaved RNA product abundance,[1],0.698
ACAGACGAAGGAGCCGCAAAGAATTTATTAAGGGATGAATAATCCGTCAATATAAATATCTCTCACTTATTTAAA,cleaved RNA product abundance,[3],0.163
CGACATGTCCCGCTTCTTTCATTAATCCATTAGCAACTGTTTTGCAATATACATTTACCTTTTAAGAGGAGGAAT,cleaved RNA product abundance,[1],0.408
ACAGACGAAGGAGCCGCAAAGAAGTTATTTAGGAATGAATAATCCCTCAATATAAATATCTCTCACTTATTTAAA,cleaved RNA product abundance,[3],0.127
CGACATGTCCCGCTTCTTTCATTATTCCGTTAGCAACTGTTTTGCTATATAGATTTAACTTTTAAGAGGAGGAAT,cleaved RNA product abundance,[1],0.911
ACAGACGAAGGAGCCGCAAAGAAATTATTAAGGGTTGAATAATCCCTCAATATAAATATCTCTCACTTATTTAAA,cleaved RNA product abundance,[3],0.365
ACAGACGAAGGAGCCGCAAAGAAGTGATTAAGGGATGAATAATCTCTCAATATAAATATCTCTCACTTATTTAAA,cleaved RNA product abundance,[3],0.306
ACAGACGAAGGAGCCGCAAAGAATTTATTAAGGGATGAATACTCCCTCAATATAAATATCTCTCACTTATTTAAA,cleaved RNA product abundance,[2],0.404
same,cleaved RNA product abundance,[3],0.583
CGACATGTCCCGCTTCTTTCATTAATCCGTTATCAACTGTTTTGTTATATACATTTACCTTTTAAGAGGAGGAAT,cleaved RNA product abundance,[1],0.272
CGACATGTCCCGCTTCTTTCATTATTCCGTTAGCAACTGTTTTGCTATATACAATTACCTTTTAAGAGGAGGAAT,cleaved RNA product abundance,[1],1.31
CGACATGTCCCGCTTCTTTCATTAATCCTATAGCAACTGTTTTGCTATATACATTTACCTTTTAAGAGGAGGAAT,cleaved RNA product abundance,[1],0.458
ACAGACGAAGGAGCCGCATAGAAGTTATTAAGGGTTGAATAATCCCTCAATATAAATATCTCTCACTTATTTAAA,cleaved RNA product abundance,[2],0.498
same,cleaved RNA product abundance,[3],0.41
ACAGACGAAGGAGCCGCAAAGAAGTTATTAAGAGATGAATAATCCCTCAATATAATTATCTCTCACTTATTTAAA,cleaved RNA product abundance,[3],0.118
ACAGACGAAGGAGCCGCCAAGATGTTATTAAGGGATGAATAATCCCTCAATATAAATATCTCTCACTTATTTAAA,cleaved RNA product abundance,[3],0.894
ACAGACGAAGGAGCCGCAAAGAAGTTATTAAGGGATGAATAATCCCTCTATCTAAATATCTCTCACTTATTTAAA,cleaved RNA product abundance,[3],0.101
ACAGACGAAGGAGCCGCAAAAAAGTTATTAAGGGATGAATAATCCCGCAATATAAATATCTCTCACTTATTTAAA,cleaved RNA product abundance,[2],0.141
same,cleaved RNA product abundance,[3],0.231
